Consider one molecule from PMC8068667 (Nature, 2021).

For the assay, the target named is RIFIN PF3D7_1373400 V2 domain, soluble recombinant (P. falciparum 3D7, UniProt C0H5N9). Nature of the assay: cryo-EM structure.

B1: MDB1 Fab (LILRB1 D3D4-containing antibody Fab) (Fab, V domains shown)
VH: QITLKESGPTLVERTQTLTLTCTFSGFSLTTDGLGVGWIRQPPGKALEWLALIYYDDVRRYRPSLKSRLTITKDTSKNRVVLTVTDMDPVDAGTYFCVHASLFNLGSRNVYFRYWGQGTLVSVSS
VL: SYDLTQPPSVSVSPGQTARITCSGDSLARQFASWYQQKPGQSPVLLIYKNIERLSAIPERFSGSTSGTSVTLTISGVQAEDEADYFCQSADDSGSYSLFGTGTRVSVL
On to B1, for which the binding result is “binds”.
